Assay results published in paper PMC11574045, “A cofactor-induced repressive type of transcription factor condensation can be induced by synthetic peptides to suppress tumorigenesis” (The EMBO Journal, 2024).

B1: NUP62 (protein, UniProt P37198 2-522, looked up)
Nuclear pore glycoprotein p62: SGFNFGGTGAPTGGFTFGTAKTATTTPATGFSFSTSGTGGFNFGAPFQPATSTPSTGLFSLATQTPATQTTGFTFGTATLASGGTGFSLGIGASKLNLSNTAATPAMANPSGFGLGSSNLTNAISSTVTSSQGTAPTGFVFGPSTTSVAPATTSGGFSFTGGSTAQPSGFNIGSAGNSAQPTAPATLPFTPATPAATTAGATQPAAPTPTATITSTGPSLFASIATAPTSSATTGLSLCTPVTTAGAPTAGTQGFSLKAPGAASGTSTTTSTAATATATTTSSSSTTGFALNLKPLAPAGIPSNTAAAVTAPPGPGAAAGAAASSAMTYAQLESLINKWSLELEDQERHFLQQATQVNAWDRTLIENGEKITSLHREVEKVKLDQKRLDQELDFILSQQKELEDLLSPLEELVKEQSGTIYLQHADEEREKTYKLAENIDAQLKRMAQDLKDIIEHLNTSGAPADTSDPLQQICKILNAHMDSLQWIDQNSALLQRKVEEVTKVCEGRRKEQERSFRITFD
B2: OLIG1 (protein, UniProt Q8TAK6 1-271, looked up)
Oligodendrocyte transcription …: MYYAVSQARVNAVPGTMLRPQRPGDLQLGASLYELVGYRQPPSSSSSSTSSTSSTSSSSTTAPLLPKAAREKPEAPAEPPGPGPGSGAHPGGSARPDAKEEQQQQLRRKINSRERKRMQDLNLAMDALREVILPYSAAHCQGAPGRKLSKIATLLLARNYILLLGSSLQELRRALGEGAGPAAPRLLLAGLPLLAAAPGSVLLAPGAVGPPDALRPAKYLSLALDEPPCGQFALPGGGAGGPGLCTCAVCKFPHLVPASLGLAAVQAQFSK
B3: OLIG3 (protein, UniProt Q7RTU3 1-272, looked up)
Oligodendrocyte transcription …: MNSDSSSVSSRASSPDMDEMYLRDHHHRHHHHQESRLNSVSSTQGDMMQKMPGESLSRAGAKAAGESSKYKIKKQLSEQDLQQLRLKINGRERKRMHDLNLAMDGLREVMPYAHGPSVRKLSKIATLLLARNYILMLTSSLEEMKRLVGEIYGGHHSAFHCGTVGHSAGHPAHAANSVHPVHPILGGALSSGNASSPLSAASLPAIGTIRPPHSLLKAPSTPPALQLGSGFQHWAGLPCPCTICQMPPPPHLSALSTANMARLSAESKDLLK
B4: OVOL1 (protein, UniProt O14753 1-267, looked up)
Putative transcription factor …: MPRAFLVKKPCVSTCKRNWSELPDEERGEIYVPVSLGFCPPQPYREPEPSVAEPPSCPLALNMSLRDSSYSMAPGPCVVAQLPSEDMGHLTDPQSRDHGFLRTKMKVTLGDSPSGDLFTCRVCQKAFTYQRMLNRHMKCHNDVKRHLCTYCGKGFNDTFDLKRHVRTHTGVRPYKCSLCDKAFTQRCSLESHLKKIHGVQQKYAYKERRAKLYVCEECGCTSESQEGHVLHLKEHHPDSPLLRKTSKKVAVALQNTVTSLLQGSPHL
B5: OVOL3 (protein, UniProt O00110 1-190, looked up)
Putative transcription factor …: MPRAFLVRSRRPQPPNWGHLPDQLRGDAYIPDCSSLGGPPAQQSSSVRDPWTAQPTQGNLTSAPRGPGTLGCPLCPKAFPLQRMLTRHLKCHSPVRRHLCRCCGKGFHDAFDLKRHMRTHTGIRPFRCSACGKAFTQRCSLEAHLAKVHGQPASYAYRERREKLHVCEDCGFTSSRPDTYAQHRALHRAA
B6: PA2G4 (protein, UniProt Q9UQ80 2-394, looked up)
Proliferation-associated …: SGEDEQQEQTIAEDLVVTKYKMGGDIANRVLRSLVEASSSGVSVLSLCEKGDAMIMEETGKIFKKEKEMKKGIAFPTSISVNNCVCHFSPLKSDQDYILKEGDLVKIDLGVHVDGFIANVAHTFVVDVAQGTQVTGRKADVIKAAHLCAEAALRLVKPGNQNTQVTEAWNKVAHSFNCTPIEGMLSHQLKQHVIDGEKTIIQNPTDQQKKDHEKAEFEVHEVYAVDVLVSSGEGKAKDAGQRTTIYKRDPSKQYGLKMKTSRAFFSEVERRFDAMPFTLRAFEDEKKARMGVVECAKHELLQPFNVLYEKEGEFVAQFKFTVLLMPNGPMRITSGPFEPDLYKSEMEVQDAELKALLQSSASRKTQKKKKKKASKTAENATSGETLEENEAGD
B7: PATZ1 (protein, UniProt Q9HBE1 1-687, looked up)
POZ-, AT hook-, and zinc …: MERVNDASCGPSGCYTYQVSRHSTEMLHNLNQQRKNGGRFCDVLLRVGDESFPAHRAVLAACSEYFESVFSAQLGDGGAADGGPADVGGATAAPGGGAGGSRELEMHTISSKVFGDILDFAYTSRIVVRLESFPELMTAAKFLLMRSVIEICQEVIKQSNVQILVPPARADIMLFRPPGTSDLGFPLDMTNGAALAANSNGIAGSMQPEEEAARAAGAAIAGQASLPVLPGVDRLPMVAGPLSPQLLTSPFPSVASSAPPLTGKRGRGRPRKANLLDSMFGSPGGLREAGILPCGLCGKVFTDANRLRQHEAQHGVTSLQLGYIDLPPPRLGENGLPISEDPDGPRKRSRTRKQVACEICGKIFRDVYHLNRHKLSHSGEKPYSCPVCGLRFKRKDRMSYHVRSHDGSVGKPYICQSCGKGFSRPDHLNGHIKQVHTSERPHKCQTCNASFATRDRLRSHLACHEDKVPCQVCGKYLRAAYMADHLKKHSEGPSNFCSICNRGFSSASYLKVHVKTHHGVPLPQVSRHQEPILNGGAAFHCARTYGNKEGQKCSHQDPIESSDSYGDLSDASDLKTPEKQSANGSFSCDMAVPKNKMESDGEKKYPCPECGSFFRSKSYLNKHIQKVHVRALGGPLGDLGPALGSPFSPQQNMSLLESFGFQIVQSAFASSLVDPEVDQQPMGPEGK
B8: ATOH8 (protein, UniProt Q96SQ7 1-321, looked up)
Transcription factor ATOH8: MKHIPVLEDGPWKTVCVKELNGLKKLKRKGKEPARRANGYKTFRLDLEAPEPRAVATNGLRDRTHRLQPVPVPVPVPVPVAPAVPPRGGTDTAGERGGSRAPEVSDARKRCFALGAVGPGLPTPPPPPPPAPQSQAPGGPEAQPFREPGLRPRILLCAPPARPAPSAPPAPPAPPESTVRPAPPTRPGESSYSSISHVIYNNHQDSSASPRKRPGEATAASSEIKALQQTRRLLANARERTRVHTISAAFEALRKQVPCYSYGQKLSKLAILRIACNYILSLARLADLDYSADHSNLSFSECVQRCTRTLQAEGRAKKRKE
B9: PBX3 (protein, UniProt P40426 1-434, looked up)
Pre-B-cell leukemia …: MDDQSRMLQTLAGVNLAGHSVQGGMALPPPPHGHEGADGDGRKQDIGDILHQIMTITDQSLDEAQAKKHALNCHRMKPALFSVLCEIKEKTGLSIRGAQEEDPPDPQLMRLDNMLLAEGVSGPEKGGGSAAAAAAAAASGGSSDNSIEHSDYRAKLTQIRQIYHTELEKYEQACNEFTTHVMNLLREQSRTRPISPKEIERMVGIIHRKFSSIQMQLKQSTCEAVMILRSRFLDARRKRRNFSKQATEILNEYFYSHLSNPYPSEEAKEELAKKCSITVSQVSNWFGNKRIRYKKNIGKFQEEANLYAAKTAVTAAHAVAAAVQNNQTNSPTTPNSGSSGSFNLPNSGDMFMNMQSLNGDSYQGSQVGANVQSQVDTLRHVINQTGGYSDGLGGNSLYSPHNLNANGGWQDATTPSSVTSPTEGPGSVHSDTSN
B10: PCBD (protein, UniProt P61457 2-104, looked up)
Pterin-4-alpha-carbinolamine …: AGKAHRLSAEERDQLLPNLRAVGWNELEGRDAIFKQFHFKDFNRAFGFMTRVALQAEKLDHHPEWFNVYNKVHITLSTHECAGLSERDINLASFIEQVAVSMT
B11: PFDN5 (protein, UniProt Q99471 2-154, looked up)
Prefoldin subunit 5: AQSINITELNLPQLEMLKNQLDQEVEFLSTSIAQLKVVQTKYVEAKDCLNVLNKSNEGKELLVPLTSSMYVPGKLHDVEHVLIDVGTGYYVEKTAEDAKDFFKRKIDFLTKQMEKIQPALQEKHAMKQAVMEMMSQKIQQLTALGAAQATAKA
B12: ATONAL1 (protein, UniProt Q92858 1-354, looked up)
Transcription factor ATOH1: MSRLLHAEEWAEVKELGDHHRQPQPHHLPQPPPPPQPPATLQAREHPVYPPELSLLDSTDPRAWLAPTLQGICTARAAQYLLHSPELGASEAAAPRDEVDGRGELVRRSSGGASSSKSPGPVKVREQLCKLKGGVVVDELGCSRQRAPSSKQVNGVQKQRRLAANARERRRMHGLNHAFDQLRNVIPSFNNDKKLSKYETLQMAQIYINALSELLQTPSGGEQPPPPPASCKSDHHHLRTAASYEGGAGNATAAGAQQASGGSQRPTPPGSCRTRFSAPASAGGYSVQLDALHFSTFEDSALTAMMAQKNLSPSLPGSILQPVQEENSKTSPRSHRSDGEFSPHSHYSDSDEAS
B13: PGR (protein, UniProt P06401 1-933, looked up)
Progesterone receptor: MTELKAKGPRAPHVAGGPPSPEVGSPLLCRPAAGPFPGSQTSDTLPEVSAIPISLDGLLFPRPCQGQDPSDEKTQDQQSLSDVEGAYSRAEATRGAGGSSSSPPEKDSGLLDSVLDTLLAPSGPGQSQPSPPACEVTSSWCLFGPELPEDPPAAPATQRVLSPLMSRSGCKVGDSSGTAAAHKVLPRGLSPARQLLLPASESPHWSGAPVKPSPQAAAVEVEEEDGSESEESAGPLLKGKPRALGGAAAGGGAAAVPPGAAAGGVALVPKEDSRFSAPRVALVEQDAPMAPGRSPLATTVMDFIHVPILPLNHALLAARTRQLLEDESYDGGAGAASAFAPPRSSPCASSTPVAVGDFPDCAYPPDAEPKDDAYPLYSDFQPPALKIKEEEEGAEASARSPRSYLVAGANPAAFPDFPLGPPPPLPPRATPSRPGEAAVTAAPASASVSSASSSGSTLECILYKAEGAPPQQGPFAPPPCKAPGASGCLLPRDGLPSTSASAAAAGAAPALYPALGLNGLPQLGYQAAVLKEGLPQVYPPYLNYLRPDSEASQSPQYSFESLPQKICLICGDEASGCHYGVLTCGSCKVFFKRAMEGQHNYLCAGRNDCIVDKIRRKNCPACRLRKCCQAGMVLGGRKFKKFNKVRVVRALDAVALPQPVGVPNESQALSQRFTFSPGQDIQLIPPLINLLMSIEPDVIYAGHDNTKPDTSSSLLTSLNQLGERQLLSVVKWSKSLPGFRNLHIDDQITLIQYSWMSLMVFGLGWRSYKHVSGQMLYFAPDLILNEQRMKESSFYSLCLTMWQIPQEFVKLQVSQEEFLCMKVLLLLNTIPLEGLRSQTQFEEMRSSYIRELIKAIGLRQKGVVSSSQRFYQLTKLLDNLHDLVKQLHLYCLNTFIQSRALSVEFPEMMSEVIAAQLPKILAGMVKPLLFHKK

System: HEK293FT cells transfected with TF library
Test: Screening of TF condensates based on fluorescent puncta
Type: cell-based
Details: Figure 1B numerical data; TF library screen, one value per transcriptional factor
Summary of the method: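 TF plasmids (final 1.6 μg/ml) reverse-transfected with PEI (4.8 μg/ml) into HEK293FT cells; after 60 h, cells cultured ±glucose for 12 h, fixed in 4% PFA and immunostained for Flag or GAL4 tags with Alexa 488 secondaries. Puncta scored by automated imaging of 50 random fields per well.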

Molecule | Z score of condensed fraction
B1 | -0.01313
B2 | -1.059
B3 | -0.3841
B4 | -0.194
B5 | -0.7593
B6 | 0.5274
B7 | -0.2188
B8 | -1.0319
B9 | 0.7478
B10 | -0.6656
B11 | 0.7455
B12 | -0.5192
B13 | 1.815
